According to article PMC10745820, “Bode Phase Angle Signaling of a TB Disease Biomarker”:

Biological target: interferon gamma (IFN-γ) (UniProt P01579 24-161)
Assay: electrochemical impedance aptasensor (Bode phase angle); spiked pleural fluid, IFN-γ 0.2-2.2 pg/mL; linear 0.2-1.2 pg/mL; LOD 0.09 (abstract) or 0.11 pg/mL; no Kd; aptamer-free control sensor only slight change; Aptamer folded in 0.1 M phosphate buffer, 10 mM KCl, 2 mM MgCl2 (90 °C 10 min, 4 °C 5 min, RT 10 min); IFN-γ in spiked pleural fluid; EIS in phosphate buffer/PBS pH 7.4; binding temperature not stated
Conditions: chain copies: 2

Sequence of interferon gamma (IFN-γ) (P01579 24-161): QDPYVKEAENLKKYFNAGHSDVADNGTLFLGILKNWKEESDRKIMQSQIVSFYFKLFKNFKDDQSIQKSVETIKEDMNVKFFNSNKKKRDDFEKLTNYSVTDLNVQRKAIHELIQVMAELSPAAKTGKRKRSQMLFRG

Binder: CGGCGAAGGCACGTGTGGGGTGGTCGCGT (ssDNA, 5' thiol (5ThioMC6-D, printed as 5thiolMCS-D)) [29-mer anti-IFN-γ aptamer]
- binding result: binds
